Experimental data taken from patent publication US20050256044A1.

Experiments:
[1] = target: V5His6-tagged polypeptide of human GIPF (GIPFt) (human); experiment: cell-based or functional assay
[2] = target: human wild type, full-length GIPF polypeptide (GIPFwt) (human) (UniProt Q2MKA7); experiment: cell-based or functional assay
Chain of UniProt Q2MKA7 (Q2MKA7 21-263 limits assumed): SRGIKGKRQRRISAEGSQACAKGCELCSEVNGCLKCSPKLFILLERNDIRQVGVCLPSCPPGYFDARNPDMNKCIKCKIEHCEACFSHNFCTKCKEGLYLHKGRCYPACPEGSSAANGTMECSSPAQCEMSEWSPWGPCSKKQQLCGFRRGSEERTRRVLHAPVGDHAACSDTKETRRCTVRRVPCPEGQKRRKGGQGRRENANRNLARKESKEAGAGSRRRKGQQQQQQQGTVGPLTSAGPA

Chain of V5His6-tagged polypeptide of human GIPF (GIPFt) (human) (chain, as listed by the source limits assumed): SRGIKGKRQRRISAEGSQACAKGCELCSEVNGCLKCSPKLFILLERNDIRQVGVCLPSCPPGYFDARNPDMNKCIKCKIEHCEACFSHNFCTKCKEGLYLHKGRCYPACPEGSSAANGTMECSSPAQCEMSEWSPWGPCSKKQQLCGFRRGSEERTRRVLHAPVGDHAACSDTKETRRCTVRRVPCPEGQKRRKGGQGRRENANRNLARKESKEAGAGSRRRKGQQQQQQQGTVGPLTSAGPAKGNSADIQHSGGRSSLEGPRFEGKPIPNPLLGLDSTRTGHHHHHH

N-terminal sequence analysis of protein from HEK293 cells; ratio of mature to dominant mature forms (ratio mature:dominant mature) [1]: 0.5
N-terminal sequence analysis of protein from HEK293 cells; ratio of mature to dominant mature forms (ratio mature:dominant mature) [2]: 0.5
Substance: furin protease (from UniProt P09958 108-794) (enzyme)
